Experimental findings from patent US20150218281A1 (Ablynx, published 2015) are described below.

Changes are numbered by the printed parent chain. Read-outs that look alike come from different tables or passages of the source.

The target in test [1] is T1, recombinant human OX40L (extracellular domain, R&D Systems) (human, UniProt P23510 51-183).
T1 sequence: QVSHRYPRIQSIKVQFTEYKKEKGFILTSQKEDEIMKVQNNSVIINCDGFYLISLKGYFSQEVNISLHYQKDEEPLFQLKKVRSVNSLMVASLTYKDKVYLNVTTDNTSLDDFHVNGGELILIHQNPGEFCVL
As to the kind of experiment: cell-based or functional assay.

In test [2] the target is T2, biotinylated hOX40L (R&D Systems, biotinylated in house) (human, UniProt P23510 51-183, biotinylated with Sulfo-NHS-LC-Biotin, sites not stated).
T2 construct: same bought protein as m10, biotinylated; also called biotinylated OX40L
T2 sequence: T1 sequence
As to the kind of experiment: hOX40L/hOX40 AlphaScreen, assay 1, native. The procedure: Next, streptavidin donor beads were added and incubated for an additional 1 hour. Fluorescence was measured by reading plates on the EnVision Multilabel Plate Reader using an excitation wavelength of 680 nm and an emission wavelength of 520 nm. […]
Background: Alpha assays give light when donor and acceptor beads are brought close together.

Test [3] concerns the target T2, biotinylated hOX40L (R&D Systems, …). Nature of the test: hOX40L/hOX40 AlphaScreen, assay 2, native. As for the experimental part:
(§1) Next, streptavidin donor beads were added and incubated for an additional 1 hour. Fluorescence was measured by reading plates on the EnVision Multilabel Plate Reader using an excitation wavelength of 680 nm and an emission wavelength of 520 nm.
(§2) In the TSA assay, Nanobodies were diluted to a concentration of 0.2 mg/ml and melting temperature (Tm) was determined at different pH by stepwise increase in temperature in presence of Sypro Orange, a dye that binds to […] residues that become exposed upon unfolding of the protein, using the Lightcycler (Roche) for detection. […] In SEC analysis, the Nanobodies were analyzed on a Phenomenex matrix to allow detection of multimers, aggregates or ‘stickyness’.

The target is the same in test [4]. Nature of the test: hOX40L/hOX40 AlphaScreen, assay 2, heated at Tm+10 C. As for the experimental part: as §1, §2
In test [5] the target is T1, recombinant human OX40L (extracellular …). Nature of the test: cell-based or functional assay. This is another data set of the same source.
The target of test [6] is T2, biotinylated hOX40L (R&D Systems, …). Nature of the test: hOX40L/hOX40 AlphaScreen, native sample. As for the experimental part: as §1, §2
Test [7] shares this target. Nature of the test: hOX40L/hOX40 AlphaScreen, sample heated 1 min at Tm+10 C. As for the experimental part: as §1, §2
Test [8] addresses T3, full length human OX40L expressed on CHO cells (human, UniProt P23510 1-183).
T3 sequence: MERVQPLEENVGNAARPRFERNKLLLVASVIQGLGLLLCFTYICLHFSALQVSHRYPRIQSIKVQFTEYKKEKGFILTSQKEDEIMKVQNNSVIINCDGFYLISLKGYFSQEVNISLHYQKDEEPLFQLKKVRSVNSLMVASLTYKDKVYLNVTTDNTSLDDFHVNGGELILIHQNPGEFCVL
As to the kind of experiment: cell-based or functional assay.

Test [9] deals with T3, full length human OX40L expressed on …. As to the kind of experiment: cell-based or functional assay. The source holds these as a separate data set.
For test [10] the target is unchanged. As to the kind of experiment: cell-based or functional assay. This is another data set of the same source.
Test [11] has as its target T2, biotinylated hOX40L (R&D Systems, …). As to the kind of experiment: AlphaScreen, 120 pM biotinylated hOX40L + 0.2 nM hOX40/Fc. As for the experimental part:
as §1

Test [12] concerns the target T3, full length human OX40L expressed on …. As to the kind of experiment: competition FACS, 3.1 nM hOX40/Fc on hOX40L expressing cells.

B1: OX40L041 (VHH, not shown: small tags and cut ends)
VHH: DVQLVESGGGLVQPGGSLRLSCAASRSIGRLDRMGWYRHATGEPRELVATITGGSSINYGDFVKGRFTISRDNSKNTVYLQMNSLRPEDTAVYYCNFNKYVTSRDTWGQGTLVTVSS
Usually IC50 stands for the point on the concentration scale where inhibition reaches its midpoint. Consider B1, for which, in test [1], the “IC50, T cell assay with rec. hOX40L” value is 64 nM. Besides, the IC50 in [2] amounted to 0.127 nM; in [3], 0.22 nM; in test [4], 0.262 nM.

B2: OX40L047 (VHH, not shown: small tags and cut ends)
VHH: B1 VHH with T41P, E43K
As to B2, the “IC50, T cell assay with rec. hOX40L” value in test [1] was 126 nM. The IC50 in test [2] amounted to 0.269 nM; in test [3], 0.735 nM; in test [4], 0.557 nM.

B3: OX40L049 (VHH, not shown: small tags and cut ends)
VHH: B1 VHH with A40R, F62S
B3: the “IC50, T cell assay with rec. hOX40L” value in test [1] was determined as 12 nM. In addition, in test [2], the IC50 stood at 0.035 nM.

B4: OX40L046 (VHH, not shown: small tags and cut ends)
VHH: B1 VHH with A40R, T41P, E43K
For B4, the “IC50, T cell assay with rec. hOX40L” value in [1] was 57 nM. Further, the IC50 in test [2] was 0.084 nM; in test [3], 0.256 nM; in test [4], 0.221 nM.

B5: OX40L048 (VHH, not shown: small tags and cut ends)
VHH: B1 VHH with A40R, G60A
For B5, the “IC50, T cell assay with rec. hOX40L” value in test [1] was 32 nM. In addition, the figures for the IC50 in test [2], in test [3] and in test [4] were 0.093 nM, 0.314 nM and 0.314 nM, respectively.

B6: OX40L043 (VHH, not shown: small tags and cut ends)
VHH: B1 VHH with A40R, E43K
On to B6, for which the “IC50, T cell assay with rec. hOX40L” value in test [1] worked out at 29 nM. The IC50 was 0.101 nM in [2], 0.134 nM in [3] and 0.156 nM in [4].

B7: OX40L044 (VHH, not shown: small tags and cut ends)
VHH: B1 VHH with T41P
As to B7, the “IC50, T cell assay with rec. hOX40L” value in test [1] worked out at 76 nM. In test [2], the IC50 turned out to be 0.065 nM.

B8: OX40L042 (VHH, not shown: small tags and cut ends)
VHH: B1 VHH with A40R, T41P
For B8, the “IC50, T cell assay with rec. hOX40L” value in [1] amounted to 18 nM. The IC50 in test [2] came out at 0.057 nM.

B9: OX40L050 (VHH, not shown: small tags and cut ends)
VHH: B1 VHH with A40R, G60A, F62S
Turning to B9, the “IC50, T cell assay with rec. hOX40L” value in test [1] was 43 nM. Moreover, the IC50 in [2] turned out to be 0.046 nM; in test [3], 0.145 nM; in test [4], 0.164 nM.

B10: OX40L045 (VHH, not shown: small tags and cut ends)
VHH: B1 VHH with E43K
As to B10, in [1], the “IC50, T cell assay with rec. hOX40L” value worked out at 133 nM. Moreover, in [2], the IC50 was determined as 0.152 nM.

B11: OX40L024 (VHH, not shown: small tags and cut ends)
VHH: EVQLVESGGGLVQPGGSLRLSCAASGRTFSSIYAKGWFRQAPGKEREFVAAISRSGRSTSYADSVKGRFTISRDNAKNTVYLQMNSLRPEDTAVYYCAAVGGATTVTASEWDYWGLGTLVTVSS
Turning to B11, in [5], the “IC50, T cell assay with rec. hOX40L” value was 1.54 nM. Moreover, the IC50 in test [6] and in test [7] was 0.07 nM each time.

B12: OX40L028 (VHH, not shown: small tags and cut ends)
VHH: B11 VHH with E1D
As for B12, the “IC50, T cell assay with rec. hOX40L” value in test [5] was 2.3 nM. Also, the IC50 in [6] and in test [7] was 0.07 nM each time.

B13: OX40L026 (VHH, not shown: small tags and cut ends)
VHH: B11 VHH with L116Q
For the molecule B13, the “IC50, T cell assay with rec. hOX40L” value in [5] stood at 2.46 nM. Moreover, the IC50 was determined as 0.05 nM in test [6] and 0.06 nM in test [7].

B14: OX40L027 (VHH, not shown: small tags and cut ends)
VHH: B11 VHH with A76S, L116Q
Consider B14, for which the “IC50, T cell assay with rec. hOX40L” value in test [5] was determined as 1.43 nM. Further, the IC50 in test [6] and in test [7] was 0.07 nM each time.

B15: OX40L039 (VHH, not shown: small tags and cut ends)
VHH: B11 VHH with E1D, A76S, L116Q
In the case of B15, the “IC50, T cell assay with rec. hOX40L” value in test [5] is 1.6 nM. In addition, the IC50 in test [6] and in test [7] was 0.05 nM in each case.

B16: OX40L025 (VHH, not shown: small tags and cut ends)
VHH: B11 VHH with A76S
Take B16: in test [5], the “IC50, T cell assay with rec. hOX40L” value was determined as 1.15 nM. Besides, the IC50 in [6] stood at 0.06 nM; in test [7], 0.05 nM.

B17: OX40L075 (VHH, not shown: small tags and cut ends)
VHH: EVQLVESGGGLVQPGGSLRLSCAASGRSFSTYIMGWFRQAPGKEREFVATISRSGITTRSADSVKGRFTISRDNSKNTVYLQMNSLRPEDTAVYYCAAGPYVEQTLGLYQTLGPWDYWGQGTLVTVSS
For B17, the IC50 was determined as 0.31 nM in [6] and 1.9 nM in test [7].

B18: benchmark OX40L blocking mAb (benchmark IgG) (antibody, V domains shown)
VH: EVQLLESGGGLVQPGGSLRLSCAASGFTFNSYAMSWVRQAPGKGLEWVSIISGSGGFTYYADSVKGRFTISRDNSRTTLYLQMNSLRAEDTAVYYCAKDRLVAPGTFDYWGQGALVTVSS
VL: DIQMTQSPSSLSASVGDRVTITCRASQGISSWLAWYQQKPEKAPKSLIYAASSLQSGVPSRFSGSGSGTDFTLTISSLQPEDFATYYCQQYNSYPYTFGQGTKLEIKR
As to B18, in [8], the “IC50, T-cell activation assay, donor 1” value was 69.1 nM; the “IC50, T-cell activation assay, donor 2” value worked out at 57.2 nM; the “IC50, T-cell activation assay, donor 3” value was 35.1 nM; the “IC50, T-cell activation assay, donor 4” value was 5.6 nM. Moreover, in test [9], the “IC50, T-cell activation assay, donor 10, +10% FBS” value was 203 nM; the “IC50, T-cell activation assay, donor 10, +10% HS” value was found to be 161 nM; the “IC50, T-cell activation assay, donor 11, +10% FBS” value was determined as 61.2 nM; the “IC50, T-cell activation assay, donor 11, +10% HS” value came to 30.2 nM. For the same molecule, in [9], the “IC50, T-cell activation assay, donor 12, +10% FBS” value is 22.1 nM; the “IC50, T-cell activation assay, donor 12, +10% HS” value is 42.9 nM; the “IC50, T-cell activation assay, donor 13, +10% FBS” value amounted to 84.4 nM; the “IC50, T-cell activation assay, donor 13, +10% HS” value came to 120 nM.

B19: anti-OX40L benchmark Fab (Fab, V domains shown)
VH: B18 VH
VL: B18 VL
notes: papain digest of benchmark IgG; also called LC001 Fab
Regarding B19, in [10], the “IC50, IL4 production, T-cell activation assay, donor 1” value was determined as 80 nM; the “IC50, IL4 production, T-cell activation assay, donor 2” value stood at 131 nM; the “IC50, IL4 production, T-cell activation assay, donor 3” value was determined as 58 nM; the “IC50, IL4 production, T-cell activation assay, donor 4” value was 85 nM. Also, in test [8], the “IC50, T-cell activation assay, donor 1” value came out at 80.2 nM; the “IC50, T-cell activation assay, donor 2” value is 131 nM; the “IC50, T-cell activation assay, donor 3” value turned out to be 57.6 nM; the “IC50, T-cell activation assay, donor 4” value was 85.2 nM. Further, the IC50 in [11] worked out at 1.97 nM. Besides, in test [12], the IC50 came out at 217 nM.
